Test results published in US20180155451A1 (published 2018).

T1: FcγRIIa H (FcγRIIa type H, His at position 131), extracellular domain with C-terminal His tag (human, UniProt P12318 34-217)
T1 construct: extracellular domain; Expressed in FreeStyle293 cells; analyte in the Biacore assay; also called FcgRIIa H; 2aH; not shown: His tag at the C terminus
T1 sequence (looked up): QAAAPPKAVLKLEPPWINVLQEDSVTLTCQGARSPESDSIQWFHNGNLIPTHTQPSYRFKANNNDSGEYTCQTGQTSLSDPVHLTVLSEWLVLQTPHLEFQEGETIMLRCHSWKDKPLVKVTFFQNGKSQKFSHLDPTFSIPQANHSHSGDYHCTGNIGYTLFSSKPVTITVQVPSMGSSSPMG

T2: FcγRIIb, extracellular domain with C-terminal His tag (human, UniProt P31994 43-217)
T2 construct: extracellular domain; Expressed in FreeStyle293 cells; analyte in the Biacore assay; also called FcgRIIb; 2b; not shown: His tag at the C terminus
T2 sequence (looked up): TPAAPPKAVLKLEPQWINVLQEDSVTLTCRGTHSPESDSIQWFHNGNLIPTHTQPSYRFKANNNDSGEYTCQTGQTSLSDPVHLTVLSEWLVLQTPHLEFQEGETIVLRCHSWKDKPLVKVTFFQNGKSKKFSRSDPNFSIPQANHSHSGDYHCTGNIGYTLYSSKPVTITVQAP

T3: FcγRIIb extracellular domain with C-terminal His tag (human, UniProt P31994 43-217)
T3 construct: extracellular domain; Soluble receptor expressed in FreeStyle293 cells; analyte in Biacore; also called FcgRIIb; 2b; not shown: His tag at the C terminus
T3 sequence (looked up): T2 sequence (looked up)

B1: GpH7-A5/GpH7-B3 variant P329_01G/GpL16-k0 (antibody, human IgG1, kappa)
heavy 1: not shown
heavy 2: not shown
light: DIVMTQSPLSLPVTPGEPASISCQASESLVHSNRNTYLHWYLQKPGQSPQLLIYKVSNRFSGVPDRFSGSGSGTDFTLKISRVEAEDVGVYYCSQNTHVPPTFGQGTKVEIERTVAAPSVFIFPPSDEQLKSGTASVVCLLNNFYPREAKVQWKVDNALQSGNSQESVTEQDSKDSTYSLSSTLTLSKADYEKHKVYACEVTHQGLSSPVTKSFNRGEC
notes: He Ab; IgG1; mutation in one H chain only; also called He Ab
B2: GpH7-A5/GpH7-B3 variant A330_12R/GpL16-k0 (antibody, human IgG1, kappa)
heavy 1: not shown
heavy 2: not shown
light: B1 light
notes: as for B1
B3: GpH7-A5/GpH7-B3 variant I332_12R/GpL16-k0 (antibody, human IgG1, kappa)
heavy 1: not shown
heavy 2: not shown
light: B1 light
notes: as for B1
B4: GpH7-A5/GpH7-B3 variant E333_18N/GpL16-k0 (antibody, human IgG1, kappa)
heavy 1: not shown
heavy 2: not shown
light: B1 light
notes: as for B1
B5: GpH7-A5/GpH7-B3 variant A330_18N/GpL16-k0 (antibody, human IgG1, kappa)
heavy 1: not shown
heavy 2: not shown
light: B1 light
notes: as for B1
B6: GpH7-A5/GpH7-B3 variant A327_06M/GpL16-k0 (antibody, human IgG1, kappa)
heavy 1: not shown
heavy 2: not shown
light: B1 light
notes: as for B1
B7: GpH7-A5/GpH7-B3 variant E333_01G/GpL16-k0 (antibody, human IgG1, kappa)
heavy 1: not shown
heavy 2: not shown
light: B1 light
notes: as for B1
B8: GpH7-A5/GpH7-B3 variant A330_07I/GpL16-k0 (antibody, human IgG1, kappa)
heavy 1: not shown
heavy 2: not shown
light: B1 light
notes: as for B1
B9: GpH7-A5/GpH7-B3 variant A330_13S/GpL16-k0 (antibody, human IgG1, kappa)
heavy 1: not shown
heavy 2: not shown
light: B1 light
notes: as for B1
B10: GpH7-A5/GpH7-B3 variant I336_19Q/GpL16-k0 (antibody, human IgG1, kappa)
heavy 1: not shown
heavy 2: not shown
light: B1 light
notes: as for B1
B11: GpH7-A5/GpH7-B3 variant I332_03V/GpL16-k0 (antibody, human IgG1, kappa)
heavy 1: not shown
heavy 2: not shown
light: B1 light
notes: as for B1
B12: GpH7-A5/GpH7-B3 variant P329_02A/GpL16-k0 (antibody, human IgG1, kappa)
heavy 1: not shown
heavy 2: not shown
light: B1 light
notes: as for B1
B13: GpH7-A5/GpH7-B3 variant I332_18N/GpL16-k0 (antibody, human IgG1, kappa)
heavy 1: not shown
heavy 2: not shown
light: B1 light
notes: as for B1
B14: GpH7-A5/GpH7-B3 variant A327_19Q/GpL16-k0 (antibody, human IgG1, kappa)
heavy 1: not shown
heavy 2: not shown
light: B1 light
notes: as for B1
B15: GpH7-A5/GpH7-B3 variant E333_11K/GpL16-k0 (antibody, human IgG1, kappa)
heavy 1: not shown
heavy 2: not shown
light: B1 light
notes: as for B1
B16: GpH7-A5/GpH7-B3 variant N325_11K/GpL16-k0 (antibody, human IgG1, kappa)
heavy 1: not shown
heavy 2: not shown
light: B1 light
notes: as for B1
B17: GpH7-A5/GpH7-B3 variant I336_20W/GpL16-k0 (antibody, human IgG1, kappa)
heavy 1: not shown
heavy 2: not shown
light: B1 light
notes: as for B1
B18: GpH7-A5/GpH7-B3 variant A330_14T/GpL16-k0 (antibody, human IgG1, kappa)
heavy 1: not shown
heavy 2: not shown
light: B1 light
notes: as for B1
B19: GpH7-A5/GpH7-B3 variant A330_03V/GpL16-k0 (antibody, human IgG1, kappa)
heavy 1: not shown
heavy 2: not shown
light: B1 light
notes: as for B1
B20: GpH7-A5/GpH7-B3 variant A327_04F/GpL16-k0 (antibody, human IgG1, kappa)
heavy 1: not shown
heavy 2: not shown
light: B1 light
notes: as for B1
B21: GpH7-A5/GpH7-B3 variant N325_12R/GpL16-k0 (antibody, human IgG1, kappa)
heavy 1: not shown
heavy 2: not shown
light: B1 light
notes: as for B1
B22: GpH7-A5/GpH7-B3 variant E333_13S/GpL16-k0 (antibody, human IgG1, kappa)
heavy 1: not shown
heavy 2: not shown
light: B1 light
notes: as for B1
B23: GpH7-A5/GpH7-B3 variant A330_08L/GpL16-k0 (antibody, human IgG1, kappa)
heavy 1: not shown
heavy 2: not shown
light: B1 light
notes: as for B1
B24: GpH7-A5/GpH7-B3 variant P329_03V/GpL16-k0 (antibody, human IgG1, kappa)
heavy 1: not shown
heavy 2: not shown
light: B1 light
notes: as for B1
B25: GpH7-A5/GpH7-B3 variant P329_19Q/GpL16-k0 (antibody, human IgG1, kappa)
heavy 1: not shown
heavy 2: not shown
light: B1 light
notes: He Ab: heterodimerized anti-glypican-3 IgG1, substitution in one H chain only; also called He Ab P329Q
B26: GpH7-A5/GpH7-B3 variant P329_20W/GpL16-k0 (antibody, human IgG1, kappa)
heavy 1: not shown
heavy 2: not shown
light: B1 light
notes: He Ab: heterodimerized anti-glypican-3 IgG1, substitution in one H chain only; also called He Ab P329W
B27: GpH7-A5/GpH7-B3 variant T335_12R/GpL16-k0 (antibody, human IgG1, kappa)
heavy 1: not shown
heavy 2: not shown
light: B1 light
notes: He Ab: heterodimerized anti-glypican-3 IgG1, substitution in one H chain only; also called He Ab T335R
B28: GpH7-A5/GpH7-B3 variant T335_11K/GpL16-k0 (antibody, human IgG1, kappa)
heavy 1: not shown
heavy 2: not shown
light: B1 light
notes: He Ab: heterodimerized anti-glypican-3 IgG1, substitution in one H chain only; also called He Ab T335K
B29: GpH7-A5/GpH7-B3 variant P331_01G/GpL16-k0 (antibody, human IgG1, kappa)
heavy 1: not shown
heavy 2: not shown
light: B1 light
notes: He Ab: heterodimerized anti-glypican-3 IgG1, substitution in one H chain only; also called He Ab P331G

Each binder was assayed against T1, FcγRIIa H (FcγRIIa type H, His at …) (assay: SPR Biacore; He/Con_2aH divided by He/Con_2b (reference: FcgRIIb)).

He_2aH/2b (IIaH/IIb) | Binder
1.32 | B1
1.27 | B2
1.8 | B3
1.26 | B4
1.28 | B5
1.27 | B6
1.2 | B7
1.3 | B8
1.58 | B9
1.27 | B10
1.3 | B11
1.62 | B12
1.22 | B13
1.24 | B14
1.22 | B15
1.55 | B16
1.52 | B17
1.21 | B18
1.52 | B19
1.32 | B20
1.56 | B21
1.23 | B22
1.24 | B23
1.57 | B24

The binders below were run against T1, FcγRIIa H (FcγRIIa type H, His at …) (assay: SPR Biacore, captured antibody, FcgR analyte; GpH7-A5/GpH7-B3/GpL16-k0 = 100).

He/Con_2aH | Binder
54.9 % of HeCon Ab | B1
108 % of HeCon Ab | B2
87.8 % of HeCon Ab | B3
96.2 % of HeCon Ab | B4
81.6 % of HeCon Ab | B5
75.5 % of HeCon Ab | B6
97.7 % of HeCon Ab | B7
87.3 % of HeCon Ab | B8
65.4 % of HeCon Ab | B9
73.7 % of HeCon Ab | B10
105 % of HeCon Ab | B11
65.7 % of HeCon Ab | B12
110 % of HeCon Ab | B13
67.3 % of HeCon Ab | B14
98.1 % of HeCon Ab | B15
16.1 % of HeCon Ab | B16
30.9 % of HeCon Ab | B17
94.5 % of HeCon Ab | B18
79.7 % of HeCon Ab | B19
84.4 % of HeCon Ab | B20
29.9 % of HeCon Ab | B21
101 % of HeCon Ab | B22
87.6 % of HeCon Ab | B23
60.4 % of HeCon Ab | B24

Each binder was assayed against T2, FcγRIIb, extracellular domain with … in the same assay as above.

He/Con_2b | Binder
41.7 % of HeCon Ab | B1
84.8 % of HeCon Ab | B2
48.9 % of HeCon Ab | B3
76.1 % of HeCon Ab | B4
63.7 % of HeCon Ab | B5
59.5 % of HeCon Ab | B6
81.4 % of HeCon Ab | B7
67.1 % of HeCon Ab | B8
41.3 % of HeCon Ab | B9
58.2 % of HeCon Ab | B10
80.7 % of HeCon Ab | B11
40.5 % of HeCon Ab | B12
89.9 % of HeCon Ab | B13
54.2 % of HeCon Ab | B14
80.6 % of HeCon Ab | B15
10.4 % of HeCon Ab | B16
20.3 % of HeCon Ab | B17
77.9 % of HeCon Ab | B18
52.4 % of HeCon Ab | B19
63.7 % of HeCon Ab | B20
19.1 % of HeCon Ab | B21
81.8 % of HeCon Ab | B22
70.5 % of HeCon Ab | B23
38.5 % of HeCon Ab | B24

These binders were tested against T4, FcγRIa extracellular domain with C-terminal His tag (human, UniProt P12314 16-292) (assay: SPR (Biacore); He/Con_1a divided by He/Con_2b (FcγRIIb)).
T4 construct: extracellular domain; Soluble receptor expressed in FreeStyle293 cells; analyte in Biacore; also called FcgRI; FcgRIa; not shown: His tag at the C terminus
How it was run: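 Antibodies with one altered H chain, captured on antigen-peptide chips, were tested against activating and inhibitory FcγRs by SPR. Running buffer HBS-EP+, 25 °C; 10 mM glycine-HCl, pH 1.5 regenerated the surface.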

T4 sequence (P12314 16-292): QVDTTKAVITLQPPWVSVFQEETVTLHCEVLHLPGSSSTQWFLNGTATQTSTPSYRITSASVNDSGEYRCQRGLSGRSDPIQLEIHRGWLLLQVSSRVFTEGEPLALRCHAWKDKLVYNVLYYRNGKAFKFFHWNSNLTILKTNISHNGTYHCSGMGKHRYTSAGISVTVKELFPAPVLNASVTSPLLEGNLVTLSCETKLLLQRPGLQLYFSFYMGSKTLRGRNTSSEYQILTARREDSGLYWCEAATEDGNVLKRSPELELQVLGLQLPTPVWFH

He_1a/2b (Ia/IIb) | Binder
2.31 | B25
2.15 | B26
1.23 | B27
1.22 | B28
1.88 | B29

These binders were tested against T4, FcγRIa extracellular domain with … (assay: SPR (Biacore), antibody captured on antigen peptide chip, FcγR as analyte; binding relative to GpH7-A5/GpH7-B3/GpL16-k0 = 100).

He/Con_1a (Ia binding) | Binder
70.7 % of control (control = 100) | B25
96.9 % of control (control = 100) | B26
113 % of control (control = 100) | B27
111 % of control (control = 100) | B28
85.3 % of control (control = 100) | B29

What follows are binders tested against T3, FcγRIIb extracellular domain with … in the same assay as above.

He/Con_2b (IIb binding) | Binder
30.7 % of control (control = 100) | B25
45.1 % of control (control = 100) | B26
91.9 % of control (control = 100) | B27
91 % of control (control = 100) | B28
45.4 % of control (control = 100) | B29
